This is an account of results in PMC10022743.

Holding throughout (assay): immunoprecipitation followed by mass spectrometry
Holding throughout (conditions): 2 h EBSS and 300 nM Torin 1; YKT6 siRNA-treated HEK293T WT cells; read off a plot

Assay [1] concerns the target SEC22B.
For assay [2], the target named is STX5.
The target of assay [3] is SNAP23.
Assay [4] addresses BET1.
The target of assay [5] is NSF.
For assay [6], the target named is VTI1B.
Assay [7] addresses NAPA.
The target of assay [8] is SEC24C.
In assay [9] the target is VAMP8.

As to “HA–YKT6-WT (full-length, siRNA-resistant) (from UniProt O15498) T156A”, the other: Log2 T156A : WT ratio in [1] stood at 1.9 log2; in [2] it was 1.2 log2; in assay [3] it was 2.8 log2; in assay [4], 0.27 log2; in assay [5] it was 2.3 log2; in assay [6], 1.4 log2. Further, the other: Log2 T156A : WT ratio was found to be 1.6 log2 in [7], 0.67 log2 in [8] and 1 log2 in [9].

On to “HA–YKT6-WT (full-length, siRNA-resistant) (from UniProt O15498) T156E”, for which the other: Log2 T156E : WT ratio in assay [1] was -1.3 log2; in assay [2], -0.7 log2; in [3], -1.5 log2; in assay [4], -4.4 log2; in [5] it was -0.3 log2; in assay [6], -0.7 log2. The other: Log2 T156E : WT ratio in assay [7] is -0.8 log2; in [8] it was 0.18 log2; in assay [9] it was -2 log2.
